Reference: US20230038638A1, “COMPLEMENT FACTOR I-RELATED COMPOSITIONS AND METHODS” (published 2023)

Experiments:
human C4b (human) = biological target: T1, human C4b (human) (UniProt P0C0L5)
T1 sequence: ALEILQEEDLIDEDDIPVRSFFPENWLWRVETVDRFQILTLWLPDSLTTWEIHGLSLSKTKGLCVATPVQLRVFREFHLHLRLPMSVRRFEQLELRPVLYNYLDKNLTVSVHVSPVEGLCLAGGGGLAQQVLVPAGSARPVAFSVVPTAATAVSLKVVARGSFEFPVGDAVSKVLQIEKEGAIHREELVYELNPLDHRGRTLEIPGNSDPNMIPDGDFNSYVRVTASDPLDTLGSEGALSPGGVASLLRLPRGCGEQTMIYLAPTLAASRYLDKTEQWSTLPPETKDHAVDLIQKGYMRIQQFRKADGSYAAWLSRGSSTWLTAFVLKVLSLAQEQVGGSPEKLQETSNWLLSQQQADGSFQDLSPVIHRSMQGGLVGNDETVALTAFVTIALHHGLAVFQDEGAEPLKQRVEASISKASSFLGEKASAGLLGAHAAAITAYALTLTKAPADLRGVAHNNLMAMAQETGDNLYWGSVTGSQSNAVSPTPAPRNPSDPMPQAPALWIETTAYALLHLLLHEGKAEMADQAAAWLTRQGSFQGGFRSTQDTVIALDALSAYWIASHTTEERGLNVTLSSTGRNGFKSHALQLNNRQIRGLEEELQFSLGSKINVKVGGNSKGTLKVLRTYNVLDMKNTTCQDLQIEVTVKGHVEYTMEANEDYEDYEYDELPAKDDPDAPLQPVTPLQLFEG

[1] = biological target: soluble human C3b (human) (UniProt P01024)

Substance	C4b Screen Ref Fold (fold of CFI-HSA wild type) (human C4b (human))	iC3b Screen Ref Fold (fold of CFI-HSA wild type) [1]	C4b Screen Ref Fold (fold vs CFI-HSA wild type) (human C4b (human))	iC3b Screen Ref Fold (fold vs CFI-HSA wild type) [1]	other results
CFI-HSA variant E487A; K14A (enzyme)	0.87	1.71	–	–	–
CFI-HSA variant E530D (enzyme)	–	–	0.24	0.25	–
CFI-HSA variant E530G (enzyme)	–	–	-0.02	0.12	–
CFI-HSA variant E536A (enzyme)	–	–	0.57	0.76	–
CFI-HSA variant F559L; V565I (enzyme)	0.77	1.59	–	–	–
CFI-HSA variant F559L; V565I; P558S (enzyme)	0.43	0.49	–	–	–
CFI-HSA variant F559L; V565T (enzyme)	0.28	0.54	–	–	–
CFI-HSA variant F559L; Y563H; V565T (enzyme)	0.55	0.58	–	–	–
CFI-HSA variant F559Y (enzyme)	–	–	–	–	C4b Screen Ref Fold (fold relative to CFI-HSA wild type) (human C4b (human)): 0.66; iC3b Screen Ref Fold (fold relative to CFI-HSA wild type) [1]: 1.23
CFI-HSA variant G556P (enzyme)	0.65	0.39	–	–	–
CFI-HSA variant G556P; P558G (enzyme)	1.86	0.68	–	–	–
CFI-HSA variant H370A (enzyme)	–	–	0.37	0.57	–
CFI-HSA variant I322V (enzyme)	–	–	0.38	0.39	–
CFI-HSA variant I322V; V323I (enzyme)	–	–	0.31	0.39	–
CFI-HSA variant I322V; V323I; R327P (enzyme)	–	–	0.38	0.36	–
CFI-HSA variant K14A; D425R (enzyme)	–	–	0.64	0.99	–
CFI-HSA variant K14E (enzyme)	1.35	1.74	–	–	–
CFI-HSA variant K14E; E487K (enzyme)	0.7	1.43	–	–	–
CFI-HSA variant K326A-R327A (enzyme)	–	–	0.2	0.37	–
CFI-HSA variant K504G (enzyme)	–	–	0.15	0.17	–
CFI-HSA variant K504P (enzyme)	–	–	-0.02	0.01	–
CFI-HSA variant M220A-K221Q (enzyme)	–	–	1.85	0.49	–
CFI-HSA variant N52Q; N85Q; N159Q (enzyme)	–	–	0.24	1.93	–
CFI-HSA variant N85Q (enzyme)	–	–	0.66	2.47	–
CFI-HSA variant N159Q (enzyme)	–	–	0.75	2.21	–
CFI-HSA variant N402E (enzyme)	–	–	1.64	0.75	–

Substance	C4b Screen Ref Fold (fold of CFI-HSA wild type) (human C4b (human))	iC3b Screen Ref Fold (fold of CFI-HSA wild type) [1]	C4b Screen Ref Fold (fold vs CFI-HSA wild type) (human C4b (human))	iC3b Screen Ref Fold (fold vs CFI-HSA wild type) [1]	other results
CFI-HSA variant N531G; P535A; GGSSGG (SEQ ID NO: 6); CR1(ccp15-17) (from UniProt P17927) (enzyme)	3.53	0.14	–	–	–
CFI-HSA variant N531G; P535G; N422K (enzyme)	2.85	1.96	–	–	–
CFI-HSA variant N531G; P535G; WT; GGSSGG (SEQ ID NO: 6); CR1(ccp15-17) (from UniProt P17927) (enzyme)	3.06	0.06	–	–	–
CFI-HSA variant N531G; WT; GGSSGG (SEQ ID NO: 6); CR1(ccp15-17) (from UniProt P17927) (enzyme)	5.3	0.05	–	–	–
CFI-HSA variant P535G (enzyme)	–	–	0.3	0.19	–
CFI-HSA variant P535G; K534Q (enzyme)	0.35	0.24	–	–	–
CFI-HSA variant P535G; N422K (enzyme)	0.09	0.52	–	–	–
CFI-HSA variant P535G; P558S (enzyme)	0.2	0.25	–	–	–
CFI-HSA variant P535G; WT; GGSSGG (SEQ ID NO: 6); CR1(ccp15-17) (from UniProt P17927) (enzyme)	2.73	0	–	–	–
CFI-HSA variant P535K (enzyme)	–	–	1.02	1.61	–
CFI-HSA variant P558S; F559L (enzyme)	0.9	0.54	–	–	–
CFI-HSA variant R327P (enzyme)	–	–	1.67	0.67	–
CFI-HSA variant R462A (enzyme)	–	–	0.31	0.11	–
CFI-HSA variant R462D (enzyme)	–	–	-0.05	0	–
CFI-HSA variant R462K (enzyme)	–	–	0.27	0.24	–
CFI-HSA variant S250A; D425R (enzyme)	–	–	0.14	1.01	–
CFI-HSA variant S507A (enzyme)	–	–	0.13	0.04	–
CFI-HSA variant S507A; GGSSGG (SEQ ID NO: 6); CR1(ccp1-3) (from UniProt P17927) (enzyme)	0.12	0.02	–	–	–
CFI-HSA variant S507A; GGSSGG (SEQ ID NO: 6); CR1(ccp15-17) (from UniProt P17927) (enzyme)	-0.01	-0.01	–	–	–
CFI-HSA variant S552G (enzyme)	1.08	0.58	–	–	–
CFI-HSA variant S552G; F559L (enzyme)	1.41	0.79	–	–	–
CFI-HSA variant S552G; F559L; P558S (enzyme)	0.93	0.44	–	–	–
CFI-HSA variant S552G; F559L; V565I (enzyme)	0.73	0.42	–	–	–
CFI-HSA variant S552G; F559L; V565I; P558S (enzyme)	1.8	0.49	–	–	–
CFI-HSA variant S552G; V565I (enzyme)	1.23	1.58	–	–	–
CFI-HSA variant S552G; V565I; P558S (enzyme)	0.89	1.32	–	–	–
